Values of other authors in article PMC8507859.
Read-outs that look alike come from different tables or passages of the source. Blank lines part the entries; values can stand above or below the substance they belong to.

Tests used:
[1] = target: Integrin α2 (Homo sapiens) (UniProt P17301)
[2] = target: MMP-14 (Homo sapiens) (UniProt P50281)
[3] = target: MMP-14 (Homo sapiens) (UniProt P50281); remark: listed apart in the source

Sequence of Lumican (P51884 19-338): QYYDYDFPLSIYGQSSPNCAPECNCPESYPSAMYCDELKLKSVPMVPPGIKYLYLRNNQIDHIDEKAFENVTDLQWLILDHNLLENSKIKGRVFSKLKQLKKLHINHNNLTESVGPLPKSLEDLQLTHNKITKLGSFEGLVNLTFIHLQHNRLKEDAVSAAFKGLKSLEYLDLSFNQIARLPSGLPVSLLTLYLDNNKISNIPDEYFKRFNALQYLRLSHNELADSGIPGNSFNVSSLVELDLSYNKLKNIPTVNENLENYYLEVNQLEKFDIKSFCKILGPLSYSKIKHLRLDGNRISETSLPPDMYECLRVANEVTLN
Sequence of TIMP-1 (P01033 24-207): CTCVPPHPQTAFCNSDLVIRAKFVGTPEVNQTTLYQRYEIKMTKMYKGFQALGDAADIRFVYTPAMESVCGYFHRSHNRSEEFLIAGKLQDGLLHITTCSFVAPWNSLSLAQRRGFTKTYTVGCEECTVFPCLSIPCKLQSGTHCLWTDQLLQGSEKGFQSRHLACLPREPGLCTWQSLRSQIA
Sequence of Integrin α2 (Homo sapiens) (P17301 30-1132): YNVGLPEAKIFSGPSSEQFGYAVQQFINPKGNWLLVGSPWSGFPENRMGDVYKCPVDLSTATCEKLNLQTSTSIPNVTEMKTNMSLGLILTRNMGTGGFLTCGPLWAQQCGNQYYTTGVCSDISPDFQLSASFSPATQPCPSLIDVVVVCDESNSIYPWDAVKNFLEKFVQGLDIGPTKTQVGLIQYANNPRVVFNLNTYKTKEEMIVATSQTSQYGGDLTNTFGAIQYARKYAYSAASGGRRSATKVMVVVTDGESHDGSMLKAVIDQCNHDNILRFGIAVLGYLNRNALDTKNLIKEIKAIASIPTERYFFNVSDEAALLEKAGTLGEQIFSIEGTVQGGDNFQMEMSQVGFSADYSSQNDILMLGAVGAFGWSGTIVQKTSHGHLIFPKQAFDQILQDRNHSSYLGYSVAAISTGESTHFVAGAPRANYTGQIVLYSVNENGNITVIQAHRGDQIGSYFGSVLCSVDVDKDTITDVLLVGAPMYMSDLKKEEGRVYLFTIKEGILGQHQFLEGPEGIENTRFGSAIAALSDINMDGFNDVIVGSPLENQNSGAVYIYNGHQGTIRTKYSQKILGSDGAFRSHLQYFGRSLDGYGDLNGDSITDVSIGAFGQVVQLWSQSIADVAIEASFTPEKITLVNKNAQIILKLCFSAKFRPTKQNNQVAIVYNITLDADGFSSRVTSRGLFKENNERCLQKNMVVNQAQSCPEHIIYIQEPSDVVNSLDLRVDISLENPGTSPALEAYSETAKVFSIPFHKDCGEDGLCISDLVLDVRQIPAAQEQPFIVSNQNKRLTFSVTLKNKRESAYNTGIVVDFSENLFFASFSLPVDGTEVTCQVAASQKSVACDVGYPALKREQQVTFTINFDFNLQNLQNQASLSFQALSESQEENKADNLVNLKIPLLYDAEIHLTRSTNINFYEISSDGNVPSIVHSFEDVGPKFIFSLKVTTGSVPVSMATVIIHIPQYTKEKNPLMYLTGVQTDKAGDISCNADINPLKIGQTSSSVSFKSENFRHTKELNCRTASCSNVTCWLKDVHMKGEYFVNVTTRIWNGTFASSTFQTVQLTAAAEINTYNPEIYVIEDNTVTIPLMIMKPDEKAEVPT
Sequence of TIMP-2 (P16035 27-220): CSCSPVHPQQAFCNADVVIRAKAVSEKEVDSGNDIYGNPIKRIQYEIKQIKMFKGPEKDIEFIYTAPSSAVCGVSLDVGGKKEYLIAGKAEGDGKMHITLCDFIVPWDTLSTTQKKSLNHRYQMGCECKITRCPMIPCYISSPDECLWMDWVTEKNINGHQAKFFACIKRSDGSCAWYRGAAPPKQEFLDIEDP

- Kd [1]: 200 nM
Substance: Lumican (from UniProt P51884)

- Kd [2]: 1530 nM
Substance: TIMP-1 (from UniProt P01033)

- Kd [3]: 56.1 nM
Substance: TIMP-2 (from UniProt P16035)
